Test results reported in patent publication USRE47770 (dated 2019).

T1: EpCAM on CHO (dhfr-) cells transfected with EpCAM cDNA (UniProt P16422 24-314, limits assumed)
T1 construct: whole, on cells; also called EP-CAM homotypic adhesion molecule; EpCAM-transfected cells
T1 sequence (looked up): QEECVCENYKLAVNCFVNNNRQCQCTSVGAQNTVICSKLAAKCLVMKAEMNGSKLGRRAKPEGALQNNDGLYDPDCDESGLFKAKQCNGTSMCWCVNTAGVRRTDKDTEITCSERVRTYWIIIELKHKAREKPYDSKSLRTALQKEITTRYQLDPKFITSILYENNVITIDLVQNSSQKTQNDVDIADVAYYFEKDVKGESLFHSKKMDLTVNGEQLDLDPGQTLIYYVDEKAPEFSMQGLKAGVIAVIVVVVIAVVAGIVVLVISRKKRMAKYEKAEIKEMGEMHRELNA

T2: Affinity-purified human CD46 from LS174T cells (human, UniProt P15529 35-392, limits assumed)
T2 construct: Coupled (640 RU) to CM5 chips for the BIACORE work; also called purified CD46; membrane cofactor protein CD46
T2 sequence (looked up): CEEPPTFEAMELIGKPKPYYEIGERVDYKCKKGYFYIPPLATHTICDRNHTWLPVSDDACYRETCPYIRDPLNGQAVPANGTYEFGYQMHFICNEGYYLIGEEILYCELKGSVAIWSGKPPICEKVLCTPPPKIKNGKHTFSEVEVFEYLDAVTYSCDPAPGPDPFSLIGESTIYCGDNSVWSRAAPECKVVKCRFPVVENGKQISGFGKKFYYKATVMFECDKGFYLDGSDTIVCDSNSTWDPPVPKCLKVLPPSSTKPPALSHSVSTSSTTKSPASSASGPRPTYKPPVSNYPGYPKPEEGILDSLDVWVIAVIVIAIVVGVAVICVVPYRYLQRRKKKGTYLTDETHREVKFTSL

T3: CD46 on cells (human colon carcinoma LS174T cells; CHO (dhfr-) cells transfected with CD46 cDNA) (human, UniProt P15529 35-392)
T3 construct: whole, on cells; also called CD46 transfectants; cofactor protein CD46
T3 sequence (looked up): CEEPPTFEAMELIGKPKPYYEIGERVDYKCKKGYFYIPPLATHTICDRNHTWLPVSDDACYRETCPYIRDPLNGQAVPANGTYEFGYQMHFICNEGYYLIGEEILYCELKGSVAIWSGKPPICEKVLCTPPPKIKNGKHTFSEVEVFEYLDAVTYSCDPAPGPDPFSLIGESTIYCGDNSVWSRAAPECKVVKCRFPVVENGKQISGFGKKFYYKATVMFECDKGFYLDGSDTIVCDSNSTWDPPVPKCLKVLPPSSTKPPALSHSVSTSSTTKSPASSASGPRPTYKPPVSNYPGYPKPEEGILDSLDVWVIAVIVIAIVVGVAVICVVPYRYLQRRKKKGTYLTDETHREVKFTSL


Tests used:
[1] = molecular target: T4, CD38 on CHO (dhfr-) cells transfected with CD38 cDNA (UniProt P28907 1-300, limits assumed); test: FACS on CHO cells transfected with EpCAM, CD46 or CD38
T4 construct: whole, on cells; also called control antigen CD38; negative control (CD38)

[2] = molecular target: T1, EpCAM on CHO (dhfr-) cells transfected …; test: as above
[3] = molecular target: T2, Affinity-purified human CD46 from …; test: SPR (BIACORE 3000, 37° C.), purified CD46 coupled to CM5 chip, IgG in solution
[4] = molecular target: T3, CD46 on cells (human colon carcinoma …); test: FACS on CHO cells transfected with EpCAM, CD46 or CD38

Row | binding result [1] | binding result [2] | Kd [3] | binding result [4] | Binder
1 | no binding (tested: 20 µg IgG1/ml) | no binding (tested: 20 µg IgG1/ml) | 22 nM | – | 02-237 IgG (antibody, V domains shown, amino acid residue 1 is a pyroglutamic acid (remark to Table III), Tested as human IgG1 (constant domains from pCRU-K01); The N-terminus of its light chain differs slightly from that of UBS54/K53 because of the cloning strategy) VH: QVQLVQSGAEVKKPGASVKVSCKASGYTFTSYGISWVRQAPGQGLEWMGWISAYNGNTNYAQKLQGRVTMTTDTSTSTAYMELRSLRSDDTAVYYCARGFPRTSFDSWGQGTLVTVSS VL: not shown
2 | no binding (tested: 20 µg IgG1/ml) | no binding (tested: 20 µg IgG1/ml) | 910 nM | – | K53 IgG (antibody, V domains shown, amino acid residue 1 is a pyroglutamic acid (remark to Table III), also called clone K53; anti-CD46 clone K53) VH: QVQLVQSGAEVKKPGASVKVSCKASGYTFTSYGISWVRQAPGQGLEWMGWISAYNGNTNYAQKLQGRVTMTTDTSTSTAYMELRSLRSDDTAVYYCARGMMRGVFDYWGQGTLVTVST VL: not shown
3 | no binding (tested: 20 µg IgG1/ml) | – | – | no binding (tested: 20 µg IgG1/ml) | UBS54 IgG (antibody, V domains shown, amino acid residue 1 is a pyroglutamic acid (remark to Table III), Tested as full human IgG1 with kappa light chain; also called anti-EpCAM clone UBS54; encoded by pUBS3000Neo) VH: QVQLVQSGAEVKKPGSSVRVSCKASGGTFSSYAISWVRQAPGQGLEWMGGIIPIFGTANYAQKFQGRVTITADESTSTAYMELSSLRSEDTAVYYCARDPFLHYWGQGTLVTVST VL: not shown
